What is called Kd is the concentration at which binding is half-saturated. Read a low Kd as a tighter complex. Usually stoichiometry N stands for the number of molecules, sites or subunits per partner or assembly.

These results are taken from publication PMC4806292, “Structural insights and in vitro reconstitution of membrane targeting and activation of human PI4KB by the ACBD3 protein” (Scientific Reports, 2016).

Changes are numbered by the printed parent chain. Names may count otherwise.

The chains are these.
B1: Acyl-coenzyme A binding domain containing protein 3 (ACBD3), full length, untagged (natural protein, human, UniProt Q9H3P7 1-528, looked up)
chain: MAAVLNAERLEVSVDGLTLSPDPEERPGAEGAPLLPPPLPPPSPPGSGRGPGASGEQPEPGEAAAGGAAEEARRLEQRWGFGLEELYGLALRFFKEKDGKAFHPTYEEKLKLVALHKQVLMGPYNPDTCPEVGFFDVLGNDRRREWAALGNMSKEDAMVEFVKLLNRCCHLFSTYVASHKIEKEEQEKKRKEEEERRRREEEERERLQKEEEKRRREEEERLRREEEERRRIEEERLRLEQQKQQIMAALNSQTAVQFQQYAAQQYPGNYEQQQILIRQLQEQHYQQYMQQLYQVQLAQQQAALQKQQEVVVAGSSLPTSSKVNATVPSNMMSVNGQAKTHTDSSEKELEPEAAEEALENGPKESLPVIAAPSMWTRPQIKDFKEKIQQDADSVITVGRGEVVTVRVPTHEEGSYLFWEFATDNYDIGFGVYFEWTDSPNTAVSVHVSESSDDDEEEEENIGCEEKAKKNANKPLLDEIVPVYRRDCHEEVYAGSHQYPGRGVYLLKFDNSYSLWRSKSVYYRVYYTR
notes: ACBD3, human, UniProtKB entry Q9H3P7, full length; Called untagged in the pull-downs; also called GCP60; PAP7; source: E. coli BL21 Star, purified (Ni-NTA, TEV, SEC); not shown: His6, N-terminal, cleaved; GB1, N-terminal, cleaved
B2: ACBD3 Y266A mutant, untagged (natural protein, human, UniProt Q9H3P7 1-528, looked up)
chain: B1 chain with Y266A
notes: ACBD3, human, UniProtKB Q9H3P7, point mutant; source: E. coli BL21 Star, purified (Ni-NTA, TEV, SEC); not shown: His6, N-terminal, cleaved; GB1, N-terminal, cleaved
B3: N-terminal His6GB1-tagged PI4KB N-terminal region (residues 1-68) (domain or fragment, human, UniProt Q9UBF8 1-68, looked up)
chain: MGDTVVEPAPLKPTSEPTSGPPGNNGGSLLSVITEGVGELSVIDPEVAQKACQEVLEKVKLLHGGVAV
notes: PI4KB N-terminal region preceding the helical domain, human, UniProtKB Q9UBF8 isoform 1, residues 1-68; also called N-terminal region of PI4KB; source: E. coli BL21 Star, purified (Ni-NTA, SEC); not shown: His6, N-terminal, kept; GB1, N-terminal, kept
B4: N-terminal His6GB1-tagged ACBD3 Q domain (residues 241-308) (domain or fragment, human, UniProt Q9H3P7 241-308, looked up)
chain: QQKQQIMAALNSQTAVQFQQYAAQQYPGNYEQQQILIRQLQEQHYQQYMQQLYQVQLAQQQAALQKQQ
notes: ACBD3 Q domain (glutamine rich region), human, UniProtKB Q9H3P7, residues 241-308; also called Q domain of ACBD3; source: E. coli BL21 Star, purified (Ni-NTA, SEC); not shown: His6, N-terminal, kept; GB1, N-terminal, kept
B5: PI4KB, untagged (residues 423-522 removed) (enzyme, human, UniProt Q9UBF8 1-816, looked up)
chain: MGDTVVEPAPLKPTSEPTSGPPGNNGGSLLSVITEGVGELSVIDPEVAQKACQEVLEKVKLLHGGVAVSSRGTPLELVNGDGVDSEIRCLDDPPAQIREEEDEMGAAVASGTAKGARRRRQNNSAKQSWLLRLFESKLFDISMAISYLYNSKEPGVQAYIGNRLFCFRNEDVDFYLPQLLNMYIHMDEDVGDAIKPYIVHRCRQSINFSLQCALLLGAYSSDMHISTQRHSRGTKLRKLILSDELKPAHRKRELPSLSPAPDTGLSPSKRTHQRSKSDATASISLSSNLKRTASNPKVENEDEELSSSTESIDNSFSSPVRLAPEREFIKSLMAIGKRLATLPTKEQKTQRLISELSLLNHKLPARVWLPTAGFDHHVVRVPHTQAVVLNSKDKAPYLIYVEVLECENFDTTSVPARIPENRRDPEDPSAVALKEPWQEKVRRIREGSPYGHLPNWRLLSVIVKCGDDLRQELLAFQVLKQLQSIWEQERVPLWIKPYKILVISADSGMIEPVVNAVSIHQVKKQSQLSLLDYFLQEHGSYTTEAFLSAQRNFVQSCAGYCLVCYLLQVKDRHNGNILLDAEGHIIHIDFGFILSSSPRNLGFETSAFKLTTEFVDVMGGLDGDMFNYYKMLMLQGLIAARKHMDKVVQIVEIMQQGSQLPCFHGSSTIRNLKERFHMSMTEEQLQLLVEQMVDGSMRSITTKLYDGFQYLTNGIM
notes: Phosphatidylinositol 4-kinase beta (PI4KB), human, UniProtKB entry Q9UBF8 isoform 1, with the intrinsically disordered region 423-522 removed; Called untagged in the pull-downs; the AUC mass of about 80 kDa fits the deleted form; also called PI4K IIIβ; untagged full-length PI4KB; source: E. coli BL21 Star, purified (Ni-NTA, TEV, SEC); not shown: His6, N-terminal, cleaved; GB1, N-terminal, cleaved

Conditions in all cases: both partners purified
In assay [1] the target is B5. The experiment in a line: SPR; legend: PI4KB binding to immobilized ACBD3; methods: PI4KB chip-immobilized, ACBD3 injected in a series of concentrations for 3 min, dissociation 5 min; single-exponential model.
For assay [2], the target named is T1, His6GB1-tagged PI4KB V47A mutant (human, UniProt Q9UBF8 1-816, V47A | residues 423–522 removed).
T1 construct: PI4KB, human, UniProtKB Q9UBF8 isoform 1, residues 423-522 removed, point mutant; source: E. coli BL21 Star, purified (Ni-NTA, SEC); not shown: His6, N-terminal, kept; GB1, N-terminal, kept
The experiment in a line: pull-down; Ni-NTA sepharose beads, one partner with N-terminal His6GB1 tag immobilised, both partners 1 μM in 200 μL 30 mM Tris pH 8, 200 mM NaCl, 10 mM imidazole, 1 mM TCEP; 30 min at 4 °C; SDS gels stained with Coomassie Blue.

Assay [3] concerns the target T2, His6GB1-tagged PI4KB V42A mutant (human, UniProt Q9UBF8 1-816, V42A | residues 423–522 removed).
T2 construct: PI4KB, human, UniProtKB Q9UBF8 isoform 1, residues 423-522 removed, point mutant; source: E. coli BL21 Star, purified (Ni-NTA, SEC); not shown: His6, N-terminal, kept; GB1, N-terminal, kept
The assay is described as above.

Assay [4] addresses T3, N-terminal His6GB1-tagged PI4KB (residues 423-522 removed) (human, UniProt Q9UBF8 1-816, residues 423–522 removed).
T3 construct: Phosphatidylinositol 4-kinase beta (PI4KB), human, UniProtKB entry Q9UBF8 isoform 1, with the intrinsically disordered region 423-522 removed; also called PI4K IIIβ; His6-tagged wild type PI4KB; source: E. coli BL21 Star, purified (Ni-NTA, SEC); not shown: His6, N-terminal, kept; GB1, N-terminal, kept
The assay is described as above.

Assay [5] concerns the target B1. The description is as above.
Assay [6] deals with B5. The description is as above.
Assay [7] concerns the target B1. The experiment in a line: AUC; sedimentation velocity, full-length proteins alone and as complex, 5 μM (both proteins); 10 mM Tris pH 8, 200 mM NaCl, 3 mM β-mercaptoethanol, 20 °C, 48000 rpm; c(s) model.

B1 returned a Kd in assay [1] of 320 nM. The binding result in assay [2] and in assay [3] was “binds” each time. As for B2, the binding result in assay [4] is “binds”. Turning to B3, the binding result in assay [5] is reported as “binds”. As for B4, in assay [6], the binding result is listed as “binds”. In the case of B5, the “stoichiometry N” value in assay [7] is 1.
